In the nanobody polyreactivity screen of Harvey et al. (2022):

Test: yeast display, Sf9 membrane polyspecificity reagent, FACS + sequencing; frameworks hold sequencing errors
Method in brief: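 Synthetic nanobody libraries on Saccharomyces cerevisiae BJ5465 were galactose-induced for 36–48 hours, stained 1 hour at 4 °C with 10% biotinylated, detergent-solubilized Sf9 membrane reagent and enriched on streptavidin microbeads. FACS then separated cells into low and high (top ~1%) gates by anti-HA (expression) and streptavidin (reagent binding) fluorescence. Genes were colony-PCR amplified, MiSeq 2 × 250 sequenced and CDR-length filtered. A clone's polyreactivity label is that of its gate of origin.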

Sequence | polyreactivity (PSR sort gate)
QVQLVESGGGIVQAGGSLRLSCAASGFTFIYYAMGWYRQAPGKERELVAGISSGGRTSYADSVKGRFTISRDNAKNTVYFQMNSLKPEDTAVYYCATPVSRFRRTEYGYYYWGQGTQVSVSS | high polyreactivity
QVQLVESGGGIVQAGGSLRLSCAASGFTFRYNTMGWYRQAPGKERELVAAITSRGTSTYYADSVKGRFTISRDNAKNTVYLQMYSLKPEDTAVYYCNKVYFKGTTRLSVSVYKLEYWGQGTQVTVSS | high polyreactivity
QVQLVESGGGIVQAGGSLRLSCAASGGIFLGNAMVWYRQAPGKERELVAGITWSGGRTYYADSVKGRFTISRDNAKNTVYLQMNSLKPEDTAVYYCNKDTPGTRFYGIYSYDYWGQGTQVTVSS | low polyreactivity
QVQLVESGGGIVQAGGSLRLSCAASGGIFYGYAMGWYRQAPGKERELVAAISSTGGRTYYADSVKGRFTISRDNAKNTVYLQMNSLKPEDTAVYYCAAEDFTRQFEYWGQGTQVTVSS | low polyreactivity
QVQLVESGGGIVQAGGSLRLSCAASGGTFHYYAMGWYRQAPGKERELVAAINRSGDSTYYADSVKGRFTISRDNSKNTVYLQMNSLKPEDTAVYYCAVSYYGADGNPFPHDYWGQGTQVTVSS | low polyreactivity
QVQLVESGGGIVQAGGSLRLSCAASGIIFWNYTMGWYRQAPGKERELVAAISVSGGSTYYADSVKGRFTISRDNAKNTVYLQMNSLKPEDTAVYYCAAEWIYPSPHYEYDYWGQGTQVTVSS | high polyreactivity
QVQLVESGGGIVQAGGSLRLSCAASGITFTVYAMGWYRQAPGKERELVAAITSTGSTNYADSVKGRFTISRDNAKNTVYLQMISLKPEDTAVYYCAADRQITVYAYDYWGHGTQVTVSS | low polyreactivity
QVQLVESGGGIVQAGGSLRLSCAASGITSYFNAMGWYRQAPGKERELVAITWNGGSTYYADSVKGRFTISRDNAMNTVYLQMNSLKPEDTAVYYCAARYRRYNRKYDYWGQGTQVTVSS | high polyreactivity
QVQLVESGGGIVQAGGSLRLSCAASGRIFLTNAKGWYRQAPGKERELVATITASGGTTYYADSVKGRFTISRDNAKNTVYLQMNSLKTEDTAVYYCAKRYYLRGYGRYYYWGQGTQVTVSS | high polyreactivity
QVQLVESGGGIVQAGGSLRLSCAASGRIFQLYGMGWYRQAPGKERECVAAISYGGGSTYYADSVKGRFTISRDIAKNTVYFKMNSLKPEDTAVYYCAAERRFYSLAKYQSMDYWGQGTQVTVSS | low polyreactivity
QVQLVESGGGIVQAGGSLRLSCAASGRIFQRYTMGWYRQAPGKEREFVAAITYSGGSTHYADSVKGRFTISRDNAKNTVYLQMNSLKPEDTAVYYCNADRYYGRGYGYWGQGTQVTVSS | low polyreactivity
QVQLVESGGGIVQAGGSLRLSCAASGRIFSVNAMGWYRQAPGKERELVAAITGSGTITYYADSVKGRFTISRDNAKNSVYLQMNSLKPEDTAVYYCAARPVLRYYAGYYYWGQGTQVTVSS | high polyreactivity
QVQLVESGGGIVQAGGSLRLSCAASGRIFTRNAMGWYRQAPGKERELVAAISYSGGTTYYADSVKGRFTISRDNAKNTVYLQMNSLKPEDTAVYYCAALRPTQRYFTYDYWGQGTQVTVSS | high polyreactivity
QVQLVESGGGIVQAGGSLRLSCAASGRIIRYYTMGWYRQAPGKERELVAAIRQRGGSTYYADSVKGRFTISRDNAKNTVYLHMNSLKREDTAVYYCNAVRRTTYDYWGQGTQVTVSS | high polyreactivity
QVQLVESGGGIVQAGGSLRLSCAASGRNFYYYAMGWYRQAPGKERELVAAISWSGGRTYYADSVKGRFTISRDNAKNTVYFQMNSLKPEDTAVYYSNAEPPRGYSVSSGGEMDYWGQGTEVTVSS | low polyreactivity
QVQLVESGGGIVQAGGSLRLSCAASGRTFDSYAMGWYRQAPGKERELVAAITYSGGSTYYADSVKGRFTISRDNAKNTVYLQMNSLKPEDTAVYYCARDRFYYRLAGSKGRRKGDYWGQGTQVTVSS | high polyreactivity
QVQLVESGGGIVQAGGSLRLSCAASGRTFFLYTLGWYRQAPGKEREFVAAINYSGGRTYYADSVKGRFTISRDKAKNTVYLQMNSLKPEDTAVYYCAAYRGSYSYDYWGQGTQVTVSS | high polyreactivity
QVQLVESGGGIVQAGGSLRLSCAASGRTFNHYAMGWYRQAPGKERELVAAITNGGNTYYADSVKGRFTISRDNAKNTVYLQMNSLKPEDTAVYYCAKLYTDAIVWSAYDYWGQGTQVTVSS | low polyreactivity
QVQLVESGGGIVQAGGSLRLSCAASGRTFRPYAMGWYRQAPGKERELVAAITSGGSTYYADSVKGRFTISRDNAKNTVYLQMNSLKPEDTAVYYCNAKYYYQPPYDYWGQGTQVTVSS | low polyreactivity
QVQLVESGGGIVQAGGSLRLSCAASGRTFYAYTMGWYRQAPGKETELVAANSRTGGRTYYADSVKGRFTISRDNAKNTVYLQMNSLKPEDTAVYYCAAGSKPGIQFRSVYSAYRYYYCGQGTQVTVSS | high polyreactivity
QVQLVESGGGIVQAGGSLRLSCAASGRTFYYAMGWYRQAPGKERELVAAITSSSSTYYADSVKGRFTISRDNAKNTVYLQMNSLKPEDTAVYYCNSADDPYGSPSYGYDYWGQGTQVTVSS | low polyreactivity
QVQLVESGGGIVQAGGSLRLSCAASGRTIPPYGMGWYRQAPGKERELVAAISKSSGSTNYADSVKGRVTISRDNAKNTVYLQMNSLKPEDTAVYYCTKEWSIGPTGIRAYVRVWYYYWGQGTQVTVSS | low polyreactivity

Sequence | polyreactivity (PSR sort gate)
QVQLVESGGGIVQAGGSLRLSCAASGRTIPYHAMGWYRQAPGKERELDAAISYSGGRTYYADCVKGRFTISRDNAKNSVYLLMNSLKPDDTAVYYCNALGSGREDVYWGQGTQVTVSS | high polyreactivity
QVQLVESGGGIVQAGGSLRLSCAASGRTLISYAMGWYRQAPGKERELVAAISWGGSSTYYADSVKWRFTISRDNAKNTVYLQRNSLKPEDTAVYYCNTVYYYWGKWRGTYDYWGLGTQVTVSS | high polyreactivity
QVQLVESGGGIVQAGGSLRLSCAASGSIFKHYAMGWYRQAPGKERELVATIDYLGGRTYYADSVKGRFTISRDNAKNTVYLQMNSLKPEDTAVYYCAASRYSGKIRGEDYWGQRTQVTVSS | low polyreactivity
QVQLVESGGGIVQAGGSLRLSCAASGSIFKYYAMARYRQAPGKERELVASMSRVGSTNYADSVKGRFTISRDTAKNTVYLQMNSLKPEDTAVYYCNKRWLYYNLDYWGQGTQVTVSS | high polyreactivity
QVQLVESGGGIVQAGGSLRLSCAASGSIFQWYAMGWYRQAPGKERELVAAISFNGGITYYADSVKGRFTISRDNANNTVYLQMNSLKPEDTAVYYCATEYRSASGDYDYWGQGTQVTVSS | low polyreactivity
QVQLVESGGGIVQAGGSLRLSCAASGSIFSGYAMGWYRQAPGKERELVAAIDWSGGTTYYADSVKGRFTISRDNAKNTVYLQMKSLKPEDTAVYYCAAKYPWYLSKDTLYYWGQGTQVTVSS | low polyreactivity
QVQLVESGGGIVQAGGSLRLSCAASGSIFWVNVMGWYRQAPGKEREFVAAITRSGGSTYYADSVKGRFTISRDNAKNTVYLQMNSLKPEDTAVYYCNRRGRRGYDYWGQGTLVTVSS | high polyreactivity
QVQLVESGGGIVQAGGSLRLSCAASGSILYFNAMGWYRQAPGKERELVAAISRTGSRTYYADSVKGRFTISRDNAKNTVYLQMNSLKPEDTAVYYCAAYNGITSHLRFDYWGQGTQVTVSS | high polyreactivity
QVQLVESGGGIVQAGGSLRLSCAASGSTFDVYAMGWYRQAPGKERELVAVINTSGTRTYYADSVKGRFTISRDNAKNTVYLQMNSLKPEDTAVYYCAVSYLSTLGRSRYDYWGQGTQVTVSS | low polyreactivity
QVQLVESGGGIVQAGGSLRLSCAASGSTFFDNAIGWYRQAPGKERELVAAITRGGSKHYADSVMGRFTISRDNAKNTVYLQMNSVKPEDTAVYSCNAQRYRVPYDYWGQGTQVTVSS | low polyreactivity
QVQLVESGGGIVQAGGSLRLSCAASGSTFFDNAMGWYRQAPGKERDLVAAISLTDGITYDADSVKGRFTISRDNAKNTVYLQMNSLKPEDTAVYYCNAVYDWSLDQVWDYFEYEYWGQGSQVTVSS | high polyreactivity
QVQLVESGGGIVQAGGSLRLSCAASGSTFSYNAMGWDRQAPGKERELVAAITSRGGSTRYADSVKGRFTISRDNAKNTVYLQMNSLKPEDTAVYYCARPYSYYPYSTVNYWGQGTQVTVSS | high polyreactivity
QVQLVESGGGIVQAGGSLRLSCAASGSTFYRYVMGWYRQAPGKERELVAAISWSGGSTYYADSVKGRFTISRDNAKNTVYLQMNSLKPEDTAVYYCAAVHKVGWSRHYDYWGQGTQVTVSS | high polyreactivity
QVQLVESGGGIVQAGGSLRLSCAASGSTIDYNAMGWYRQARGQERELVAAITSGGSTSYADSVKGRFTISRENAKNTVYLQMNSLKPEDTAGYYCAVKRYWLWWYDYWGQGTQVTVSS | high polyreactivity
QVQLVESGGGIVQAGGSLRLSCAASGTFGYAMGWYRQAPGKERELVAAISYSGGSTYYADSVKGRFTISRDNAKNTVYLQMNSLKPEDTAVYYCAARTTLSYGYDYWGQGTQVTVSS | high polyreactivity
QVQLVESGGGIVQAGGSLRLSCADSGITFKYYAMGWYRQAPGKERQWVAAISRSGGSTYYADSVKGRFTISRDNAKNTVYLQMNSLIAEDTAVYYCNAELYSVYLGFGYWGQGTQVTVSS | high polyreactivity
QVQLVESGGGIVQAGGSLRLSCADSGRTFGYYGMGWYRQAPGKERELVASINFSSGSTFYADSVKGRFTISRDNAKNTVYLQMNSLKPEDTAVYYCAGRAKAVRTYAYNYWGQGTQVTVSS | low polyreactivity
QVQLVESGGGIVQAGGSLRLSCADSGSTFRDNAMGLYRQAPGKERELVAAITVIDGTTYYADSVKGRFTISRDNAKNTVYLQMNSLKPEDTAVYYCAADTIWYEYYYWGQGTQVTVSS | low polyreactivity
QVQLVESGGGIVQAGGSLRLSCPASGRIFGPNAMGGYRQAPGKERELVAVISRRGTSTYYADSVKGRFTISRDNAKNTVYLQMNRLKPEDTAVYYCAAGGHYLYDYWGQGTQVTVSS | high polyreactivity
QVQLVESGGGIVQAGGSLRLSSAASGFTFDSNAMGWYRQPPGKERELVAAISASGDSTYYADSVKGRFTISRDNAKNTVYLQMNSLKPEDTAVYYCAADSYYGGWRFDHWGQGTQVTVSS | low polyreactivity
QVQLVESGGGIVQAGGSLRLTCAASGRIFRSYAMGWYRQAPGKERELVATITWSGTSTYADSVKGRFTISRDNAKNTVYLQMNSLKPEDTAVYYCAAVALFPKYRYYSWGQGTQVTVSS | high polyreactivity
